According to the supplement of paper PMC10567573:

B1: SLC35F2 (parent)
chain: FVAFALCMFCLYSFMPLVIKVTSA

Variants of: B1
Assay: protein stability index of a GFP-peptide fusion (GPS, HEK-293T) (PSI 1-6); higher = more stable
Details: c terminus: a fixed tail appended
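Note: lentivirally expressed fusions sorted by FACS into six bins by GFP to DsRed ratio, PSI derived from sequencing read proportions per bin multiplied by bin number.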

Protein stability index of substitutions, site by site:
F14: N 2.27 | V 3.79 | M 2.52 | K 2.77 | Y 2.41 | R 3.4 | T 2.91 | Q 2.31 | W 3.16 | H 3.63 | G 3.38
L17: W 2.18 | A 2.46 | C 1.91 | E 2.38 | R 2.36 | V 3.13 | H 2.77 | K 4.14 | T 2.34 | D 2.8 | P 2.71 | F 2.35 | N 1.58 | Y 3.6 | M 3.65 | Q 3.99 | I 2.03 | G 2.43
A24: W 3.16 | H 3.79 | R 1.84 | T 3.11 | N 2.63 | K 2.04 | I 2.65 | S 2.61 | M 2.66 | E 2.42 | P 3.3 | L 3.27 | V 3.15 | C 1.31 | D 2.65
L11: S 4.04 | A 3.07 | N 3.45 | K 3.17 | T 2.43 | W 2.44 | F 2.21 | D 3.52 | V 3 | Q 3.66 | P 1.84 | G 2.39 | I 3.19 | E 4.11 | Y 2.67 | C 3.54 | H 2.99 | R 2.85
C10: I 2.27 | A 2.18 | W 2.35 | N 2.8 | T 2.52 | D 3.05 | K 2.52 | F 3.07 | V 3.48 | Q 3.47 | G 2.58 | L 2.43 | R 3.21 | M 2.88 | E 3.49 | Y 2.28 | S 3.53 | P 2.35 | H 2.75
V18: G 3.68 | K 2.63 | A 2.91 | N 3.17 | F 2.85 | W 2.6 | P 3.36 | M 2.51 | C 3.04 | R 3.05 | I 2.35 | Q 4.26 | L 2.65 | T 2.57 | Y 2.54 | H 2.9 | E 2.87 | D 3.27 | S 2.91
F9: V 2.56 | E 3.49 | S 2.61 | K 3.39 | W 2.68 | Y 2.79 | M 3.23 | P 2.44 | R 3.23 | A 2.62 | G 1.76 | L 2.07 | Q 2.59 | C 2.94 | N 2.31 | D 3.1
T22: L 3.31 | R 3.29 | W 2.77 | C 2.54 | Y 2.75 | D 2.05 | E 3.47 | G 2.96 | S 2.33 | I 2.71 | N 3.68 | P 3.35 | H 3.96 | V 3.01 | Q 3.07 | F 2.36 | A 2.77
I19: D 2.73 | K 3.47 | V 3.21 | F 2.69 | E 2.87 | S 2.42 | W 4.11 | P 2.86 | Y 1.94 | Q 3.62 | C 2.7 | L 3.06 | M 2.48 | H 2.14 | G 3.04 | T 3.51
M15: P 4.92 | I 3.14 | T 2.83 | L 3.33 | V 2.71 | D 3.13 | N 3.43 | H 2.97 | S 2.61 | R 2.98 | C 3.39 | G 2.42 | E 2.25 | Y 3.23 | K 3.67 | Q 3.41 | F 3.1 | W 2.1
